A word on the Kd: it is the concentration at which binding is half-saturated. Higher therefore signals weaker binding. In general, koff refers to the first-order rate constant of dissociation. Higher therefore signals fast dissociation.

The results in this text go back to PMC12578645 (2025).

To fix the notation:
B1: gB-Ecto.H516P.L531E (HSV-1 glycoprotein B ectodomain stabilized in the prefusion conformation) (domain or fragment)
chain: not shown
modifications: N-linked glycans (densities seen at 141, 398, 430 and 674)
B2: PILRα_G78 ectodomain (paired immunoglobulin-like type 2 receptor alpha, HSV-1 gB co-receptor, with R78G) (receptor)
chain: QPSGSTGSGPSYLYGVTQPKHLSASMGGSVEIPFSFYYPWELATAPDVRISWRRGHFHGQSFYSTRPPSIHKDYVNRLFLNWTEGQKSGFLRISNLQKQDQSVYFCRVELDTRSSGRQQWQSIEGTKLSITQAVTTTTQRPSSMTTTWRLSSTTTTTGLRVTQGKRRSDSWHISLETA
B3: PILRα_G78 ectodomain (paired immunoglobulin-like type 2 receptor alpha, HSV-1 gB co-receptor, with R78G) (receptor)
chain: B2 chain
modifications: engineered disulfide A240C-E607C; N-linked glycans (densities seen at 141, 398, 430 and 674)
B4: D48 Fab (Fab, V domains shown)
VH: EVQLVETGGGVVRPGRSLRLSCTTSGFSFSGSAMHWVRQAPGKGLEWVAVISHDGNIIQYHDSVKGRFTISRDNSKNVLLLQMNSLRVDDTAMYYCARDVWLLPATISYAFDFWGQGTMVTVSS
VL: VIWMTQSPPSLSASIGDTVTITCRASQGISNSIAWYQRRPGKAPELLVYAAYRLQSGVPSRLSGSGSGAEYTLTIKNMQPEDFATYYCQQYYDNPLTFGGGTKVEIK
B5: D48 Fab (Fab, V domains shown)
VH: B4 VH
VL: B4 VL
modifications: engineered disulfide A240C-E607C; N-linked glycans (densities seen at 141, 398, 430 and 674)

Experiment in all cases: SPR
On the technique in general: SPR reads the build-up and loss of mass on a sensor chip optically.

In experiment [1] the target is SS10.
Experiment [2] deals with SS55.
For experiment [3], the target named is DL16.
For experiment [4], the target named is T1, gB-Ecto.H516P (HSV-1 glycoprotein B ectodomain with H516P and an appended foldon; postfusion) (HSV-1 KOS strain, UniProt P06437 31-728, H516P, N-linked glycans (densities seen at 141, 398, 430 and 674)).
In experiment [5] the target is B1.
For experiment [6], the target named is T1, gB-Ecto.H516P (HSV-1 glycoprotein B …). The source holds these as a separate data set.
Experiment [7] concerns the target B1. This is another data set of the same source.
In experiment [8] the target is T2, gB-Ecto.H516P.L531E.DS (HSV-1 glycoprotein B ectodomain stabilized in the prefusion conformation with the … (HSV-1 KOS strain, UniProt P06437 31-728, H516P | L531E | A240C | E607C)).
Experiment [9] has as its target T2, gB-Ecto.H516P.L531E.DS (HSV-1 …). This is another data set of the same source.

In the case of B1, the Kd in [1] was 1.03 nM; in experiment [2], 7.47 nM; in [3] it was 28.2 nM. The koff in experiment [1] stood at 5.6e-05 s⁻¹; in experiment [2] it was 0.000208 s⁻¹; in [3], 0.0013 s⁻¹.

With B2, the koff was 0.66 s⁻¹ in experiment [4] and 0.34 s⁻¹ in experiment [5]. The Kd in experiment [6] was found to be 2000 nM; in experiment [7], 1600 nM.

As for B3, the off-rate (koff) in experiment [8] turned out to be 0.33 s⁻¹. In [9], this molecule yielded a Kd of 1800 nM.

On to B4, for which the koff in experiment [4] was 4.06e-05 s⁻¹; in experiment [5], 1.08e-05 s⁻¹. Also, the values for the Kd in [6] and in experiment [7] were 0.252 nM and 0.0272 nM, respectively.

B5 displayed a koff in [8] of 2.18e-05 s⁻¹. Moreover, the Kd in experiment [9] turned out to be 0.0827 nM.
